Holding throughout (test): cell-based or functional assay
In test [1] the target is HIV-1 Env of pseudovirus JRCSF (HIV-1) (UniProt P20871).
The target of test [2] is HIV-1 Env of pseudovirus 92TH021 (HIV-1).
The target in test [3] is HIV-1 Env of pseudovirus MGRM-C-26 (HIV-1).
Test [4] concerns the target HIV-1 Env of isolate MGRM-G-009 (subtype G), on pseudovirus (HIV-1).
The target in test [5] is HIV-1 Env of isolate MGRM-G-024 (subtype G), on pseudovirus (HIV-1).
The target in test [6] is HIV-1 Env of isolate MGRM-G-027 (subtype G), on pseudovirus (HIV-1).
Test [7] addresses HIV-1 Env of isolate MGRM-G-011 (subtype G), on pseudovirus (HIV-1).
The target in test [8] is HIV-1 Env of isolate MGRM-G-004 (subtype G), on pseudovirus (HIV-1).
Test [9] addresses HIV-1 Env of isolate MGRM-G-013 (subtype G), on pseudovirus (HIV-1).
Test [10] deals with HIV-1 Env of isolate MGRM-G-016 (subtype G), on pseudovirus (HIV-1).
The target of test [11] is HIV-1 Env of isolate MGRM-G-019 (subtype G), on pseudovirus (HIV-1).
For test [12], the target named is HIV-1 Env of isolate 93TH305 (subtype B) (HIV-1).
Test [13] concerns the target HIV-1 Env of isolate APV 13 (subtype B) (HIV-1).
The target in test [14] is HIV-1 Env of isolate MGRM-G-028 (subtype G), on pseudovirus (HIV-1).
Test [15] concerns the target HIV-1 Env of isolate 92BR020 (subtype B) (HIV-1).
The target of test [16] is HIV-1 Env of isolate MGRM-G-014 (subtype G), on pseudovirus (HIV-1).
Test [17] concerns the target HIV-1 Env of isolate APV 6 (subtype B) (HIV-1).
Test [18] concerns the target aMLV envelope, on pseudovirus (negative control).
Test [19] addresses HIV-1 Env of isolate 6535.3 (subtype B) (HIV-1).
Test [20] addresses HIV-1 Env of isolate MGRM-G-017 (subtype G), on pseudovirus (HIV-1).
For test [21], the target named is HIV-1 Env of isolate MGRM-G-015 (subtype G), on pseudovirus (HIV-1).
The target in test [22] is HIV-1 Env of isolate MGRM-G-025 (subtype G), on pseudovirus (HIV-1).
Test [23] has as its target HIV-1 Env of isolate MGRM-G-001 (subtype G), on pseudovirus (HIV-1).
Test [24] concerns the target HIV-1 Env of isolate APV_17 (subtype B) (HIV-1).
Test [25] concerns the target HIV-1 Env of isolate MGRM-G-006 (subtype G), on pseudovirus (HIV-1).

Substitutions are numbered along the chain they refer to. Values joined by “and” are separate entries in the source; they are usually repeats but may differ in a detail not shown here. Equal entries are not always repeated. Where only a bound is given, the exact number is not on record here.

B1: PGT-131 (B cell culture well 5136_H1) (antibody, V domains shown)
VH: QVQLQESGPGLVKPSETLSLTCTVSGDSINTGHHYWGWVRQVPGKGPEWIAHIHYNTAVLHNPALKSRVTISIFTLKNLITLSLSNVTAADTAVYFCVRSGGDILYYIEWQKPHWFYPWGPGILVTVSS
VL: QSALTQPPSASGSLGQSLTISCSGTGSDIGSWNFVSWYQQFPGRAPNLIIFEVNRRRSGVPDRFSGSKSGNTASLTVSGLRSEDEAEYFCSSLSGRWDIVFGGGTKVTVL
As for B1, the results for the Primary Neutralization Index (B cell culture supernatant) in [1], in test [2] and in test [3] were 6.2, 354 and 1.2, respectively.

B2: PGT-131 (antibody, V domains shown)
VH: B1 VH
VL: B1 VL
With B2, the IC50 (µg/mL), neutralization of pseudovirus in test [4] is over 50 µg/mL; in [5], 10.7 µg/mL; in [6] it was 2.9 µg/mL; in [7] it was over 50 µg/mL; in test [8], over 50 µg/mL; in test [9], over 50 µg/mL. Further, the IC50 (µg/mL), neutralization of pseudovirus in test [10] is over 50 µg/mL; in test [11] it was over 50 µg/mL; in test [14], 0.466 µg/mL; in test [16], 4.31 µg/mL; in test [18], over 50 µg/mL; in test [20], over 50 µg/mL. For the same molecule, the IC50 (µg/mL), neutralization of pseudovirus in test [21] was over 50 µg/mL; in test [22] it was 7.75 µg/mL; in [23], 0.404 µg/mL; in test [25] it was over 50 µg/mL. For the same molecule, the IC50 (µg/mL), pseudovirus neutralization in test [12] was 0.016 µg/mL; in test [13], 0.189 µg/mL; in [15], 6.16 µg/mL; in [17], over 50 µg/mL; in test [19] it was 0.056 µg/mL; in test [24], over 50 µg/mL.

B3: PGT-136 (antibody, V domains shown)
VH: QLQLQESGPGLVKPSETLSLTCTVSGGSMRGTDWGENDFHYGWIRQSSAKGLEWIGSIHWRGRTTHYKTSFRSRATLSIDTSNNRFSLTFSFVTAADTAVYYCARHKYHDIFRVVPVAGWFDPWGQGLLVTVSS
VL: EIVMTQSPPTLSVSPGETATLSCRASQNVKNNLAWYQLKPGQAPRLLIFDASSRAGGIPDRFSGSGYGTDFTLTVNSVQSEDFGDYFCQQYEEWPRTFGQGTKVDIK
In the case of B3, the IC50 (µg/mL), neutralization of pseudovirus is over 50 µg/mL in [4]; 0.152 µg/mL in test [5]; 45.2 µg/mL in test [6]; over 50 µg/mL in test [7]; over 50 µg/mL in [8]; over 50 µg/mL in test [9]. The IC50 (µg/mL), neutralization of pseudovirus in test [10] is over 50 µg/mL; in test [11] it was 44.3 µg/mL; in test [14], over 50 µg/mL; in test [16] it was over 50 µg/mL; in test [18], over 50 µg/mL; in [20] it was over 50 µg/mL. Moreover, the IC50 (µg/mL), neutralization of pseudovirus in test [21] was over 50 µg/mL; in test [22] it was over 50 µg/mL; in [23] it was 8.11 µg/mL; in test [25], over 50 µg/mL. Further, the IC50 (µg/mL), pseudovirus neutralization is 20.2 µg/mL in test [12]; over 50 µg/mL in [13]; 8.61 µg/mL in test [15]; over 50 µg/mL in test [17]; over 50 µg/mL in [19]; over 50 µg/mL in test [24].

B4: PGT-130 (B cell culture well 5147_N6) (antibody, V domains shown)
VH: QVQLQESGPGLVKPAETLSLTCSVSGESINTGHYYWGWVRQVPGKGLEWIGHIHYTTAVLHNPSLKSRLTIKIYTLRNQITLRLSNVTAADTAVYHCVRSGGDILYYYEWQKPHWFSPWGPGIHVTVSS
VL: QSALTQPPSASGSLGQSVTISCNGTSSDIGGWNFVSWYQQFPGRAPRLIIFEVNKRPSGVPGRFSGSKSGNSASLTVSGLQSDDEGQYFCSSLFGRWDVVFGGGTKLTVL
Regarding B4, the Polyclonal Transfectant Neutralization Index turned out to be 1.24 in test [1], 4.2 in test [2] and 1.05 in test [3]. The results for the Primary Neutralization Index (B cell culture supernatant) in test [1], in test [2] and in test [3] were 19.3, 538 and 3, respectively.

B5: PGT-126 (B cell culture well 5141_B17) (antibody, V domains shown)
VH: QPQLQESGPGLVEASETLSLTCTVSGDSTAACDYFWGWVRQPPGKGLEWIGGLSHCAGYYNTGWTYHNPSLKSRLTISLDTPKNQVFLKLNSVTAADTAIYYCARFDGEVLVYHDWPKPAWVDLWGRGTLVTVSS
VL: QSALTQPPSASGSPGQSISISCTGTSNRFVSWYQQHPGKAPKLVIYGVNKRPSGVPDRFSGSKSGNTASLTVSGLQTDDEAVYYCSSLVGNWDVIFGGGTKLTVL
In the case of B5, the Polyclonal Transfectant Neutralization Index in test [1] is 102; in test [2], 2.74; in test [3], 102. The Primary Neutralization Index (B cell culture supernatant) is 1410 in [1], 2.3 in test [2] and 654 in test [3].

B6: PGT-127 (B cell culture well 5145_B14) (antibody, V domains shown)
VH: QPQLQESGPGLVEASETLSLTCTVSGDSTGRCNYFWGWVRQPPGKGLEWIGSLSHCRSYYNTDWTYHNPSLKSRLTISLDTPKNQVFLRLTSVTAADTATYYCARFGGEVLVYRDWPKPAWVDLWGRGTLVVTVS
VL: B5 VL with S19T, R28N, H36Y, G47E, N66S, T77A, A81G
Consider B6, for which the results for the Polyclonal Transfectant Neutralization Index in [1], in test [2] and in [3] were 1.61, 0.94 and 2.62, respectively. The Primary Neutralization Index (B cell culture supernatant) in [1] was determined as 31.1; in test [2] it was 1; in test [3] it was 86.9.

B7: PGT-128 (B cell culture well 5114_A19) (antibody, V domains shown)
VH: QPQLQESGPTLVEASETLSLTCAVSGDSTAACNSFWGWVRQPPGKGLEWVGSLSHCASYWNRGWTYHNPSLKSRLTLALDTPKNLVFLKLNSVTAADTATYYCARFGGEVLRYTDWPKPAWVDLWGRGTLVTVSS
VL: B5 VL with S19T, R28N, P37A, G47D, S86G
For B7, the Polyclonal Transfectant Neutralization Index in test [1] came out at 136; in test [2], 10; in [3], 32.2. In addition, the Primary Neutralization Index (B cell culture supernatant) worked out at 77.5 in test [1], 6.6 in test [2] and 17.1 in test [3].

B8: PGT-125 (B cell culture well 5123_A6) (antibody, V domains shown)
VH: QSQLQESGPRLVEASETLSLTCNVSGESTGACTYFWGWVRQAPGKGLEWIGSLSHCQSFWGSGWTFHNPSLKSRLTISLDTPKNQVFLKLTSLTAADTATYYCARFDGEVLVYNHWPKPAWVDLWGRGIPVTVSS
VL: QSALTQPPSASGSPGQSITISCNGTATNFVSWYQQFPDKAPKLIIFGVDKRPPGVPDRFSGSRSGTTASLTVSRLQTDDEAVYYCGSLVGNWDVIFGGGTTLTVL
Turning to B8, the Polyclonal Transfectant Neutralization Index in test [1] stood at 119; in test [2] it was 50.6; in [3], 88.3. Moreover, the Primary Neutralization Index (B cell culture supernatant) in test [1] was determined as 1730; in [2], 133; in [3], 512.

B9: PGT-135 (B cell culture wells 5343_B8 and 5344_E16) (antibody, V domains shown)
VH: QLQMQESGPGLVKPSETLSLSCTVSGDSIRGGEWGDKDYHWGWVRHSAGKGLEWIGSIHWRGTTHYKESLRRRVSMSIDTSRNWFSLRLASVTAADTAVYFCARHRHHDVFMLVPIAGWFDVWGPGVQVTVSS
VL: EIVMTQSPDTLSVSPGETVTLSCRASQNINKNLAWYQYKPGQSPRLVIFETYSKIAAFPARFVASGSGTEFTLTINNMQSEDVAVYYCQQYEEWPRTFGQGTKVDIK
Take B9: the Primary Neutralization Index (B cell culture supernatant) in test [1] is 1.8 and 1.5; in test [3], 6.5 and 3.6.
